Biological target: PaxA T1-CDD di-domain construct (thiolation domain followed by the C-terminal docking domain of PaxA) (Xenorhabdus cabanillasii JM26)
Assay: SEC + NMR titration; analytical gel filtration and NMR titration experiments; complex in slow exchange on the NMR time scale; NMR at 293 K, samples in 50 mM sodium phosphate pH 6.5, 100 mM NaCl, 2 mM β-mercaptoethanol, 5% D2O

Substance: PaxB N-terminal docking domain (amino acids 1-30 of PaxB followed by a non-native tyrosine) (domain or fragment)
- stoichiometry N: 1

Reference: PMC7973640
